For 1 molecule, EC50 results are on record in patent publication CN118638216A.

This assay has as its target 新型冠状病毒SARS-CoV-2和SARS-CoV以及动物来源的SARS-like冠状病毒S1. Briefly: ELISA, S1 proteins coated at 2 μg/mL, antibody titrated from 10 μg/mL.

B1: 全人源广谱抗sarbecovirus和/或新冠突变株的抗体(VSCM8-83) (antibody, V domains shown)
VH: EVQLVEFGGGLVQPGGSLRLSCAASGFAVSSNYMSWVRQAPGKGLEWVSVIYGDGTTYYGDSVKGRFTISRHNSKNTLYLQMNSLRTEDTAVYYCARIVSEAFDLWGQGTMVTVSS
VL: DIQMTQSPSTLSASVGDRVTITCRASQSIGRWLAWYQQKPGKAPKLLIYMASILESGVPSRFSGSGSATEFTLTISSLQPDDFATYYCQQYNGYSQYTFGQGTKLEIKR
One may read the EC50 as the concentration at which the effect is half-maximal. In turn, B1 yielded an EC50 of 0.0397 to 0.0749 µg/mL.
